Measured values taken from US8822661B2, “Xylose reductase mutants and uses thereof” (The Board of Trustees of the University of Illinois, priority 2007, dated 2014).
Read-outs that look alike come from different tables or passages of the source.

Assays:
[1] = cited from earlier work
[2] = Kinetic characterization of purified mutant NcXRs, substrate L-arabinose (NADPH oxidation at A340); format: biochemical, Neurospora crassa
Method: (§1) NADPH concentration was kept >100 μM at all times, making it the non-rate-limiting reagent assuming no significant change in KM for mutants from the 1.8 μM for wild-type NcXR toward NADPH. All reactions were performed at pH 6.3 and 25° C., allowing for easy comparison to published data on wild-type NcXR. Initial reaction rate at each substrate concentration was measured by monitoring the rate of change at A340 upon addition of purified enzyme to the substrate mix. All readings were taken in at least two independent two data sets to minimize random error and eliminate experimental artifacts. […] Maximum reaction rates (kcat) were calculated based on molecular weight of dimeric NcXR.
(§2) Michaelis-Meten kinetic constants (KM, kcat) were determined. All reactions were performed at 25° C. in 50 mM MOPS buffer pH 6.3. NADPH concentration was kept >100 μM, usually between 100-400 μM and substrate concentrations were between 5 and 1500 mM for xylose and between 5 and 2000 mM for arabinose. Purified enzymes were kept on ice at all times to minimize thermal inactivation. Calculations were based on at least two independent datasets of two readings each, and were performed by least-squares fit method in Microcal Origin 5.0 (OriginLab Corporation, Northampton, Mass.). Substrate solutions were maintained at 25° C. in ThermoNESLAB RTE7 refrigerated water bath (Thermo Electron Corporation, Waltham, Mass.). A water-circulating jacketed the cuvette holder in Varian Cary 100 Bio UV-visible spectrophotometer (Varian, Palo Alto, Calif.). 500 μL substrate solution was added to a quartz cuvette with 10 mm path-length and mixed with 0.3-2 μg purified enzyme. Reaction rate was monitored as decrease in absorbance at 340 nm, corresponding to oxidation of NADPH (c=6220 M^−1 cm^−1) to NADP. Initial reaction rate was measured as the slope between 0.05 min and 0.25 min. Specific activity calculated for various substrate concentrations from initial reaction rates was used to calculate Michaelis-Menten constants.

[3] = XR of the named organism, cited from earlier work
[4] = Kinetic characterization of purified mutant NcXRs, substrate D-xylose (NADPH oxidation at A340); format: biochemical, Neurospora crassa
Method: as §1, §2

[5] = XR of the named organism, read-out: KM, NADPH

B1: P. siptitus: xylose reductase (XR) from P. siptitus as printed (protein, UniProt P31867 1-318, looked up)
NAD(P)H-dependent D-xylose …: MPSIKLNSGYDMPAVGFGCWKVDVDTCSEQIYRAIKTGYRLFDGAEDYANEKLVGAGVKKAIDEGIVKREDLFLTSKLWNNYHHPDNVEKALNRTLSDLQVDYVDLFLIHFPVTFKFVPLEEKYPPGFYCGKGDNFDYEDVPILETWKALEKLVKAGKIRSIGVSNFPGALLLDLLRGATIKPSVLQVEHHPYLQQPRLIEFAQSRGIAVTAYSSFGPQSFVELNQGRALNTSPLFENETIKAIAAKHGKSPAQVLLRWSSQRGIAIIPKSNTVPRLLENKDVNSFDLDEQDFADIAKLDINLRFNDPWDWDKIPIFV
In the case of B1, the Km [1, 5] is listed as 9 µM.

B2: S. cerevisiae: xylose reductase (XR) from S. cerevisiae (protein, UniProt P38715 2-327, looked up)
NADPH-dependent aldose …: SSLVTLNNGLKMPLVGLGCWKIDKKVCANQIYEAIKLGYRLFDGACDYGNEKEVGEGIRKAISEGLVSRKDIFVVSKLWNNFHHPDHVKLALKKTLSDMGLDYLDLYYIHFPIAFKYVPFEEKYPPGFYTGADDEKKGHITEAHVPIIDTYRALEECVDEGLIKSIGVSNFQGSLIQDLLRGCRIKPVALQIEHHPYLTQEHLVEFCKLHDIQVVAYSSFGPQSFIEMDLQLAKTTPTLFENDVIKKVSQNHPGSTTSQVLLRWATQRGIAVIPKSSKKERLLGNLEIEKKFTLTEQELKDISALNANIRFNDPWTWLDGKFPTFA
In the case of B2, the Km [1, 5] is listed as 7.6 µM.

B3: wt: wild-type xylose reductase from Neurospora crassa, SEQ ID NO: 1 (NCU 08384.1) (protein, listed as Neurospora crassa)
chain: MVPAIKLNSGFDMPQVGFGLWKVDGSIASDVVYNAIKAGYRLFDGACDYGNEVECGQGVARAIKEGIVKREELFIVSKLWNTFHDGDRVEPIVRKQLADWGLEYFDLYLIHFPVALEYVDPSVRYPPGWHFDGKSEIRPSKATIQETWTAMESLVEKGLSKSIGVSNFQAQLLYDLLRYAKVRPATLQIEHHPYLVQQNLLNLAKAEGIAVTAYSSFGPASFREFNMEHAQKLQPLLEDPTIKAIGDKYNKDPAQVLLRWATQRGLAIIPKSSREATMKSNLNSLDFDLSEEDIKTISGFDRGIRFNQPTNYFSAENLWIFG
With B3 the Km ([2]; pH 6.3, 25° C., NADPH >100 μM) was 40000 µM, the kcat ([2]; pH 6.3, 25° C., based on dimeric NcXR) was 30 s⁻¹ and the “Catalytic Efficiency (relative)” value ([2]; relative to wt with D-xylose) was 41%. For the same molecule, the kcat [3] was 60 s⁻¹, the Km ([3]; read-out: KM, xylose) was 34000 µM and the “xylose over arabinose specificity, in words” value [4] was “higher than twofold”. For the same molecule, the “Selectivity (xylose-to-arabinose)” value ([4]; ratio of catalytic efficiency between xylose and arabinose) was 2.4, the “Catalytic Efficiency (relative)” value ([4]; substrate D-Xylose, relative to wt with D-xylose) was 100% and the Km [1, 5] was 1.8 µM. For the same molecule, the Km ([1]; wild-type NcXR, published value, read-out: KM toward NADPH) was 1.8 µM.

B4: C. tenuis: xylose reductase (XR) from C. tenuis (protein, UniProt O74237 1-322, looked up)
NAD(P)H-dependent D-xylose …: MSASIPDIKLSSGHLMPSIGFGCWKLANATAGEQVYQAIKAGYRLFDGAEDYGNEKEVGDGVKRAIDEGLVKREEIFLTSKLWNNYHDPKNVETALNKTLADLKVDYVDLFLIHFPIAFKFVPIEEKYPPGFYCGDGNNFVYEDVPILETWKALEKLVAAGKIKSIGVSNFPGALLLDLLRGATIKPAVLQVEHHPYLQQPKLIEFAQKAGVTITAYSSFGPQSFVEMNQGRALNTPTLFAHDTIKAIAAKYNKTPAEVLLRWAAQRGIAVIPKSNLPERLVQNRSFNTFDLTKEDFEEIAKLDIGLRFNDPWDWDNIPIFV
In the case of B4, the Km [1, 5] is listed as 4.8 µM.
